B1: RNA-binding E3 ubiquitin-protein ligase MEX3C, residues 325 to 391; numbered along this chain, Q5U5Q3 (parent)
chain: GQTTVQVRVPYRVVGLVVGPKGATIKRIQQQTHTYIVTPSRDKEPVFEVTGMPENVDRAREEIEMHI

Variants of: B1
Assay: abundance fitness (aPCA) (normalised: wild type 0, dead -1); higher = more abundant; growth selection in yeast, the domain comes from the species named
Conditions: Homo sapiens

Abundance fitness: each site, then its substitutions
G51: H -0.789; C -1.05; S -0.918; T -1.05; L -0.794; F -0.701; W -0.951; E -0.599; Q -0.776; Y -0.918; K -0.448; P -0.78; R -0.726; D -0.656
E54: D -0.119; A -0.079; K -0.519; R -0.248; S -0.213; G -0.179; M -0.575; I -0.377; T -0.267; F -0.815; P -0.235; N -0.419; Y -0.382; L -0.325; V -0.485; C -0.482; W -0.174; Q -0.321; H -0.332
V49: N -0.675; W -0.99; C -0.668; A -0.682; P -1.34; G -0.469; K -0.702; Y -0.804; T -0.626; S -0.843; R -0.788; D -0.71; Q -0.901; L -0.62; I 0.129; M -0.793; F -0.842
E48: N -0.733; L -0.029; S -0.245; V -0.292; H -0.155; I -0.007; M -0.04; P -0.771; W -0.124; Q -0.204
M52: Y -0.19; C -0.194; D -0.13; T 0.185; K -0.075; H -0.515; I -0.183; S 0.006; L -0.04; E -0.2; R -0.167; N -0.99; Q -0.021; A -0.141; V -0.482; W -0.369; F -0.206; G -0.596
P53: T -0.375; N -0.295; M -0.433; S -0.279; R -0.167; C -0.514; W -0.871; I -0.689; F -0.488; K -0.012; V -0.734; D -0.597; Q -0.173; G -0.541; A -0.141
D57: L -0.057; G -0.198; W -0.245; S -0.229; K 0.22; Y -0.303; P -0.673; H -0.472; F -0.176; I -0.11; A 0.151; R 0.018; Q -0.108; C -0.072; T 0.013; M 0.132; N 0.069; V -0.143; E 0.137
N55: F -0.711; R -0.789; V -0.8; L -0.885; T -0.627; I -0.646; M -0.541; Y -0.811; K -0.647; C -0.544; Q 0.138; E -0.401; G -0.281; W -1.17; A -0.146; S -0.426; D 0.033
V56: L -0.574; Y -0.62; I -0.21; T -0.286; C 0.009; Q -0.455; E -0.927; N -1.11; H -0.712; W -0.809; S -0.496; R -0.799; A -0.585; D -0.75; K -0.402; M -0.455
T50: M -0.378; C -0.313; Q -0.624; N -0.792; S -0.254; K -0.52; I -0.494; E -0.835; Y -0.598; P -0.916; W -0.545; G -0.651; L -0.547; H -0.315; V -0.745; F -0.618
R58: C -0.36; I -0.954; D -0.73; G -0.675; E -0.572; F -0.519

Source: the Human Domainome abundance scans (Beltran et al. 2025)
